The values that follow come from the supplement of paper PMC12042874.

± gives the uncertainty stated by the source.

A short description of the data set: amyloid nucleation score (Sup35N fusion, yeast selection) (log enrichment); library NNK3; higher = more nucleation; inactive = no reads after selection. In outline: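 In psi-negative yeast, Sup35N fusions carrying peptides of 20 random codons were induced with 100 μM copper sulfate for 24 hours. The cells then grew 7 days at 30°C on medium lacking adenine and uracil, and plasmid inserts from input and output were Illumina-sequenced, excluding sequences with under 100 input reads. Nucleation score is the DiMSum log enrichment of output over input reads, centred on the mode score of non-aggregating sequences.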

Regarding YCDSVWNQNSTYHISL, the amyloid nucleation score result was “inactive”. As for CVLSSRF, the entry is “inactive”.

Take FIYYDRFVKPSPKQTVSFSA: the amyloid nucleation score entry was “inactive”. As for LTVNDDFRYKAFWVCRSMFV, the entry is “inactive”; as for FINMKIKQTYMRVFFWICAV, “inactive”.

Regarding VRKPECSVVWVNQCWVQPPY, the amyloid nucleation score was found to be 2.15 ± 0.062. In the case of HSKFWFCLFRIFQVSGLFNR, the amyloid nucleation score result was “inactive”. As for WCPSQDNFWQNFLF, the figure is -0.079 ± 0.23; as for CTAILAVMSIGNFFNRLDLN, “inactive”. Consider SICIRFF, for which the amyloid nucleation score result is “inactive”. With CSDNILEHYTSFYWLMSVHR the entry was “inactive”.

With AANLDYSRLLEVLE, the amyloid nucleation score entry was “inactive”. With SFNVSRWPRKWISLNCLKIS the entry was “inactive”; with VWQWKGRCHVTNRYWYFCSS, “inactive”. With GLPLVACLMSEQYCL the entry was “inactive”; with TMFIVNTNIWSGVCISDNTW, 1.78 ± 0.067. As for TIGGNWGHWVVVIFV, the figure is 0.064 ± 0.96. As for IMFSVRRLKSILSRVAWYNT, the amyloid nucleation score entry was “inactive”. As for YEKYDTKVWNCG, the entry is “inactive”; as for RKMFWDGF, “inactive”. As for MLWLNNGGLYWIALIFEMSS, the entry is “inactive”; as for ESLAWS, “inactive”. With VTCWMVAVELKKIHYQCIES the entry was “inactive”; with FLKLGDSGRVYLLCFLAQVS, “inactive”.

As for GAGYADICPTAFHMPRWVFN, the amyloid nucleation score entry is “inactive”. With CCVDPLAELLICMTALIASR the entry was “inactive”; with SGSSMTS, “inactive”. With RECSNSVVLFLDVTHRVVRT the entry was “inactive”. Take VGFPPSSTSRCR: the amyloid nucleation score result was “inactive”. With KMDLFVRIVSCLVNGCQTTG the entry was “inactive”; with SVRRHSSGCMNNAL, “inactive”; with SFSVPVELSEP, “inactive”.

Turning to GYMWNRVGCLVEDDHNEGVN, the amyloid nucleation score entry is “inactive”.

As for RSNTPPGISLARPFYPKNRV, the amyloid nucleation score result was “inactive”. With MFECNWAIFRREFLRLVCTV the entry was “inactive”. As for HMLSNFGARVREYIAMFGRL, the entry is “inactive”. As for LRGGKVMITRFVSCSI, the amyloid nucleation score result was “inactive”. Regarding FVSGDSNTIIQPMAYNMDSK, the amyloid nucleation score is -0.282 ± 0.42. As for KNYCGKNEYVLCTD, the entry is “inactive”; as for DVRFVRDAGAVFLIILSERH, “inactive”. With VDMRSDDLIMQFWQLLSDDV the entry was “inactive”; with GRWMMWFIEFYNGRQESWGN, “inactive”; with RIIIVYR, “inactive”. On to FWSSLAVQRACKCMGGFCDL, for which the amyloid nucleation score entry is “inactive”. As for AHGFLSVFV, the figure is 0.92 ± 0.12; as for MSNRHWM, “inactive”.

Turning to IELVFAHVYCGMRWNSEASR, the amyloid nucleation score is 1.4 ± 0.084. As for IVYPFSGLMPDGAFRKEFDA, the entry is “inactive”. As for SCFRFKTQLTIGLVEEISCA, the entry is “inactive”. As for RAYSYPSDYWW, the figure is -0.122 ± 0.43; as for FQRVPNWVSIILTGYRGNTC, “inactive”; as for VWEFICVGVLC, 2.65 ± 0.05. ATNLSYLNSAQVWLLT: the amyloid nucleation score entry is “inactive”. With ISIFRRTGFAWFWENV the entry was “inactive”.

WVSSFTVAWKGGKQRVITVE: the amyloid nucleation score result is “inactive”. With AVLKILFVRPCYVINMSLKY, the amyloid nucleation score is 0.199 ± 0.64. As for PCTMDESRYLVMYFHFPMSV, the entry is “inactive”; as for YQGAFS, 0.341 ± 0.83. As for FFLRSGCTIWTNSK, the entry is “inactive”; as for VVMHAYCWLWNYSDFSIMGS, 1.57 ± 0.094; as for CCGQIADSFLPKSSRGEVRN, “inactive”. With NSYFKPVKSCNLQLGEVTLQ the entry was “inactive”. With TKKLKIPYFANFYTRFRHFK, the amyloid nucleation score result was “inactive”. With FRNRLGSTDNQWV the entry was “inactive”.

For the substance STSVSYEWPDLGACIGGDFG, the amyloid nucleation score entry is “inactive”. With NSTKLKPYWGPG the entry was “inactive”. With SVRLSIVAGWFCKIWYSFLL the entry was “inactive”. Regarding SSYIESQELHSWAVQLRLLV, the amyloid nucleation score result is “inactive”. With VVMSWYLVVTI the figure was 0.883 ± 0.26; with SFLTDMPKTKVYCAMNLPMI, -0.121 ± 0.66. As for RSNLRLGSRDKPAIQL, the amyloid nucleation score entry was “inactive”. EVKSDVMKLFNCVFSCPLTF yielded an amyloid nucleation score of 2.38 ± 0.073. As to GKYKFSLF, the amyloid nucleation score entry is “inactive”. With AFRGCSSLYS the entry was “inactive”; with YSIDLFIRESDFDVHKKHIS, “inactive”. As for LFYSRGHLSGLGLGVMAPFI, the entry is “inactive”. Regarding EYAKMSLCPSYRFCVLFASW, the amyloid nucleation score result was “inactive”. Take SHVSRVNEVSVISMSDINDH: the amyloid nucleation score entry was “inactive”.

KLKVVVIKNICFG displayed an amyloid nucleation score of 1.82 ± 0.083. Consider SVTLRATGSGNRRYDAIRNY, for which the amyloid nucleation score result is “inactive”. With RSVYYRSLLGTNYCSFLLFD the entry was “inactive”. With GDSIRSWNRGAVEIA the figure was -0.377 ± 1.5. As for FLPCRFHNSLTDND, the entry is “inactive”; as for SSMVTSLGCVLYKL, “inactive”; as for HLSFDIVV, “inactive”. Turning to YLLSIEYVNLAIVDNSWRMF, the amyloid nucleation score worked out at 1.04 ± 0.094. VTYYKSMYTREHFWTLGNSF: the amyloid nucleation score was found to be 0.69 ± 0.21. As for ESAKFYLYSAR, the entry is “inactive”; as for NGLPVLLEEDLS, “inactive”. As for DRISGFVIKYNFNLSFSEMW, the figure is 0.52 ± 0.17. Turning to HVFRLAWTMKLWEADTLS, the amyloid nucleation score result is “inactive”. With LILAQVLWFGFETGGKLETM, the amyloid nucleation score entry was “inactive”. As for RHLLLTGKSWCVQACPGRTV, the figure is -0.965 ± 1.1. Turning to LLCFVDVSYVHNA, the amyloid nucleation score was 0.834 ± 0.23. As for SYSLNNYMTKLVWIYVSWLL, the entry is “inactive”; as for FKLTDLCC, “inactive”; as for PCILPKRTRIIVR, “inactive”. As for RCFIDLCFLDIIISFRYY, the entry is “inactive”. With AVSLTW the entry was “inactive”; with SKSFVYPVNVCRRWLAVLGN, “inactive”.

With LSDWKFDMCYCFFVLCQELW, the amyloid nucleation score entry is “inactive”. As for YLYMG, the entry is “inactive”; as for SKWAFPYPA, “inactive”; as for SIICCAFLVVQFKER, 2.62 ± 0.084. GLIVCVVASSYLMSGFGVKG returned an amyloid nucleation score of 0.03 ± 0.22. With MYQLLMFAYVT the entry was “inactive”; with KPVYYQCLENISSFEC, “inactive”; with QFDFVLPVGYVFGDGYVLWV, “inactive”. Consider YRPYC, for which the amyloid nucleation score result is “inactive”. As for FCLVLGVWNLVPPGVKSMMQ, the figure is 0.889 ± 0.14; as for HSLVSLWYGSRCIILSR, “inactive”. GLVNVVWMCFLGWPWLKVRS: the amyloid nucleation score result was “inactive”. In the case of SCRVTPVLR, the amyloid nucleation score entry is “inactive”. Regarding TSSFVKSFRCYSAIG, the amyloid nucleation score result was “inactive”.

As for VEAHLLL, the amyloid nucleation score was 0.01 ± 0.87. As for CTYLAVVTMMDEELWGIRWN, the entry is “inactive”; as for SYCLTGTDSVINVIGAGPSQ, “inactive”; as for FINAVAIRMIILVSRTRPTF, 0.984 ± 0.12. With VGSIYDSHNLPMSGHSDWNG, the amyloid nucleation score result is “inactive”.

The substance RRYSRVKVRRLFMRNNLMLN had an amyloid nucleation score of 0.283 ± 0.15. With DCPLNNVTSLSHP, the amyloid nucleation score entry is “inactive”.

Take YVCCHERWVGFYSGK: the amyloid nucleation score result is “inactive”.

For the substance VWGAHPLFGSISVARTISNW, the amyloid nucleation score entry is “inactive”. With INLFICMCEKGYPHDSWVCC the figure was 2.58 ± 0.083; with VCSLVGKKRPHGSTSI, “inactive”; with TNFSRYEDFVLLFCPILYAF, “inactive”. With TFSFHLCIQEPTSFDNSLHT the figure was 0.164 ± 0.36; with EEMLRHCHKIRERWGSKSFE, “inactive”; with CLVYLV, “inactive”.

As to EDAWMIVRISGC, the amyloid nucleation score result was “inactive”.

Turning to LSALHSVYLINAISFGFNQT, the amyloid nucleation score was 1.09 ± 0.13.

For ILVWNLYLT, the amyloid nucleation score stood at 2.54 ± 0.053. With KSNVLP the entry was “inactive”.
